In article PMC8476643 (Nature Communications, 2021):

What was measured:
[1] = target: T1, SARS-CoV-2 two-proline stabilized S trimer (S-2P) (SARS-CoV-2 Wuhan-Hu-1 (GenBank …, UniProt P0DTC2, stabilised)); test: SPR; details: both partners purified
T1 construct: also called SARS-CoV-2 S-2P

[2] = target: T1, SARS-CoV-2 two-proline stabilized S …; test: SPR; details: both partners purified; remark: listed apart in the source

B1: 7D6 monoclonal antibody (antibody, V domains shown)
VH: EVQLQQSGAELVRPGASVKLSCTASGFNIKDTYIHWVKQRPEQGLEWIGRIDPGDGDTEYDPSFQGKATITADTSSNTAYLELSSLTSEDTAVYYCTRFYDYVDYGMDYWGQGTSVTVSS
VL: DIQMTQSPASLSASVGETVTITCRASGNIHNYLAWYQQKQGKSPQLLVYNAKTLADGVPSRFSGSGSGTQYSLKINSLQPEDFGSYYCQHFWSTPPWTFGGGTKLEVK
notes: also called mAb 7D6; source: mouse hybridoma, ascites, purified (protein A agarose); copies: 2 + 2
Kd [1]: 5.89 nM | koff [1]: 8.81e-05 s⁻¹ | kon [1]: 15200 M⁻¹ s⁻¹ | Kd [2]: 5.8 nM

B2: 6D6 monoclonal antibody (antibody, V domains shown)
VH: EVQLQQSGAELVKPGASVKLSCTTSGFNIIDTYMHWVKQRPEEGLEWIGGIDPVNGNSEYDPKFQDKATITADTSSNTAYLHLSRLTSEDTAVYYCASAHYYGSSSSFPYWGQGTLVTVSA
VL: DIVMTQSQKFMSTSVGDRVSVTCKASQNVGTHVAWYQQKPGQSPKALIYSASYRYSGVPDRFTGSGVGTDFTLTITNVQSEDLAEYFCQQYNSYFTFGSGTKLEIK
notes: also called mAb 6D6; source: mouse hybridoma, ascites, purified (protein A agarose); copies: 2 + 2
Kd [1]: 0.03 nM | koff [1]: 4.2e-06 s⁻¹ | kon [1]: 123000 M⁻¹ s⁻¹
